Target: T1, His-tagged bacterially expressed MBP-POSH fusion protein (human, UniProt Q7Z6J0 1-888)
T1 sequence (looked up): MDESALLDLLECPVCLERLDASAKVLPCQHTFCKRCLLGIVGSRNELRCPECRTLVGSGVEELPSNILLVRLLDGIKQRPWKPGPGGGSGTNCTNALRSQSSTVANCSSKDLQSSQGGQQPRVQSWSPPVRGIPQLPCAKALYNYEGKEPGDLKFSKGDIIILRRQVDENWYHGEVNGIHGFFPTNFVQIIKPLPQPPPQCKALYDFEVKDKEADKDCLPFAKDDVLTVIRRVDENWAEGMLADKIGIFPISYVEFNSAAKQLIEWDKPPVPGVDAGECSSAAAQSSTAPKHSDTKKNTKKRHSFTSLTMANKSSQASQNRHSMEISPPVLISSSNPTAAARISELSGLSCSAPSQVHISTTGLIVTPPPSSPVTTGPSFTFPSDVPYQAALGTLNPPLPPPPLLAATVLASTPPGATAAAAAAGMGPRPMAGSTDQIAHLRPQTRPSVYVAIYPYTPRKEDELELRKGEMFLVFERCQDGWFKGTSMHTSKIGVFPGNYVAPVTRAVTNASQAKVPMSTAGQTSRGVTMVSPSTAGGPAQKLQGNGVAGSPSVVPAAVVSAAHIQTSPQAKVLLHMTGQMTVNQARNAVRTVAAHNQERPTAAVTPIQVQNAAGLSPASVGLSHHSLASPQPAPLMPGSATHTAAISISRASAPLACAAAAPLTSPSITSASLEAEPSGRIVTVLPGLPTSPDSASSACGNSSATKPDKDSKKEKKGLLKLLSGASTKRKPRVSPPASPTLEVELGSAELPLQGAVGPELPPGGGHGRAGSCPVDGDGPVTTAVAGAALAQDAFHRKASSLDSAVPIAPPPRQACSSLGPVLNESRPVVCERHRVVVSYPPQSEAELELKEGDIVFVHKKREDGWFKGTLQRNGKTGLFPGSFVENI
Test: co-IP

B1: truncated Herp (tHerp; amino acids 1-272) with FLAG tag (domain or fragment, UniProt Q15011 1-272, looked up)
chain: MESETEPEPVTLLVKSPNQRHRDLELSGDRGWSVGHLKAHLSRVYPERPRPEDQRLIYSGKLLLDHQCLRDLLPKQEKRHVLHLVCNVKSPSKMPEINAKVAESTEEPAGSNRGQYPEDSSSDGLRQREVLRNLSSPGWENISRPEAAQQAFQGLGPGFSGYTPYGWLQLSWFQQIYARQYYMQYLAATAASGAFVPPPSAQEIPVVSAPAPAPIHNQFPAENQPANQNAAPQVVVNPGANQNLRMNAQGGPIVEEDDEINRDWLDWTYSAA
  binding result: binds

From publication PMC2064109 (The Journal of Cell Biology, 2007)
